From patent US20190077849A1 (US Dept. of Health and Human Services, published 2019)
Substitutions are numbered along the chain they refer to. Numbers in names are those of the source. Where “and” joins values, the source holds several entries; their conditions need not be identical. Equal values may be shown once. Read-outs that look alike come from different tables or passages of the source.

Assays:
[1] = biological target: HIV-1 Env of CNE31.SG3 pseudovirus (clade C) (HIV-1); test: cell-based or functional assay
[2] = biological target: HIV-1 Env of TH966.8.SG3 pseudovirus (clade AE) (HIV-1); test: cell-based or functional assay
[3] = biological target: HIV-1 Env of ZM106.9.SG3 pseudovirus (clade C) (HIV-1); test: cell-based or functional assay
[4] = biological target: HIV-1 Env of KER2008.12.SG3 pseudovirus (clade A) (HIV-1); test: cell-based or functional assay
[5] = biological target: HIV-1 Env of PVO.04.SG3 pseudovirus (clade B) (HIV-1); test: cell-based or functional assay
[6] = biological target: HIV-1 Env of ZM215.8.SG3 pseudovirus (clade C) (HIV-1); test: cell-based or functional assay
[7] = biological target: HIV-1 Env of CNE31.SG3 pseudovirus (clade C) (HIV-1); test: cell-based or functional assay; remark: listed apart in the source
[8] = biological target: HIV-1 Env of 6101.10.SG3 pseudovirus (clade B) (HIV-1); test: cell-based or functional assay
[9] = biological target: T1, HIV-1 Env of YU2.DG.SG3 pseudovirus (clade B) (HIV-1, UniProt P35961 32-843); test: cell-based or functional assay
[10] = biological target: HIV-1 Env of TH966.8.SG3 pseudovirus (clade AE) (HIV-1); test: cell-based or functional assay; remark: listed apart in the source
[11] = biological target: HIV-1 Env of ZM106.9.SG3 pseudovirus (clade C) (HIV-1); test: cell-based or functional assay; remark: listed apart in the source
[12] = biological target: HIV-1 Env of KER2008.12.SG3 pseudovirus (clade A) (HIV-1); test: cell-based or functional assay; remark: listed apart in the source
[13] = biological target: HIV-1 Env of PVO.04.SG3 pseudovirus (clade B) (HIV-1); test: cell-based or functional assay; remark: listed apart in the source
[14] = biological target: T2, HIV-1 Env of 6095.V1.C10.SG3 pseudovirus (clade ACD) (HIV-1); test: cell-based or functional assay
[15] = biological target: HIV-1 Env of ZM215.8.SG3 pseudovirus (clade C) (HIV-1); test: cell-based or functional assay; remark: listed apart in the source
[16] = biological target: HIV-1 Env of CNE31.SG3 pseudovirus (clade C) (HIV-1); test: cell-based or functional assay; remark: listed apart in the source
[17] = biological target: HIV-1 Env of 6101.10.SG3 pseudovirus (clade B) (HIV-1); test: cell-based or functional assay; remark: listed apart in the source
[18] = biological target: T1, HIV-1 Env of YU2.DG.SG3 pseudovirus …; test: cell-based or functional assay; remark: listed apart in the source
[19] = biological target: HIV-1 Env of TH966.8.SG3 pseudovirus (clade AE) (HIV-1); test: cell-based or functional assay; remark: listed apart in the source
[20] = biological target: HIV-1 Env of ZM106.9.SG3 pseudovirus (clade C) (HIV-1); test: cell-based or functional assay; remark: listed apart in the source
[21] = biological target: HIV-1 Env of KER2008.12.SG3 pseudovirus (clade A) (HIV-1); test: cell-based or functional assay; remark: listed apart in the source
[22] = biological target: HIV-1 Env of PVO.04.SG3 pseudovirus (clade B) (HIV-1); test: cell-based or functional assay; remark: listed apart in the source
[23] = biological target: T2, HIV-1 Env of 6095.V1.C10.SG3 …; test: cell-based or functional assay; remark: listed apart in the source
MPER peptide = biological target: T3, MPER peptide (HIV-1); test: MPER peptide binding assay (method not given)
T3 construct: also called gp41 MPER peptide

B1: 10E8 variant 4 (H6-511-4mut VH + rL3-6mut VL) (antibody, V domains shown)
VH: EVRLVESGGGLVKPGGSLRLSCSASGFDFDNAWMTWVRQPPGKGLEWVGRITGPGEGWSVDYAESVKGRFTISRDNTKNTLYLEMNNVRTEDTGYYFCARTGKYYDFWSGYPPGEEYFQDWGQGTLVIVSS
VL: ASELTQDPAVSVALKQTVTITCRGDSLRSHYASWYQKKPGQAPVLLFYGKNNRPSGIPDRFSGSASGNRASLTITGAQAEDEADYYCSSRDKSGSRLSVFGGGTKLTVL
[1]
  IC50, pseudovirus neutralization: 1.16 mg/L
[2]
  IC50, pseudovirus neutralization: 0.036 mg/L and 0.021 mg/L
[3]
  IC50, pseudovirus neutralization: > 50 mg/L
[4]
  IC50, pseudovirus neutralization: > 50 mg/L
[5]
  IC50, pseudovirus neutralization: 2.39 mg/L and 1.13 mg/L
[6]
  IC50, pseudovirus neutralization: 0.042 mg/L
  IC80, pseudovirus neutralization: 0.326 mg/L
[7]
  IC50, pseudovirus neutralization: 1.74 mg/L
  IC80, pseudovirus neutralization: 4.85 mg/L
[8]
  IC50, pseudovirus neutralization: 0.011 mg/L
  IC80, pseudovirus neutralization: 0.09 mg/L
[9]
  IC50, pseudovirus neutralization: 0.668 mg/L
  IC80, pseudovirus neutralization: 5.32 mg/L
[10]
  IC50, pseudovirus neutralization: 0.026 mg/L
  IC80, pseudovirus neutralization: 0.169 mg/L
[11]
  IC50, pseudovirus neutralization: > 50 mg/L
  IC80, pseudovirus neutralization: > 50 mg/L
[12]
  IC50, pseudovirus neutralization: > 50 mg/L
  IC80, pseudovirus neutralization: > 50 mg/L
[13]
  IC50, pseudovirus neutralization: 0.894 mg/L
  IC80, pseudovirus neutralization: 8 mg/L
[14]
  IC50, pseudovirus neutralization: 0.004 mg/L
  IC80, pseudovirus neutralization: 0.021 mg/L
[15]
  IC50, pseudovirus neutralization: 0.122 mg/L
  IC80, pseudovirus neutralization: 0.502 mg/L
[16]
  IC50, pseudovirus neutralization: 1.32 mg/L
  IC80, pseudovirus neutralization: 4.04 mg/L
[17]
  IC50, pseudovirus neutralization: 0.052 mg/L
  IC80, pseudovirus neutralization: 0.263 mg/L
[18]
  IC50, pseudovirus neutralization: 1.49 mg/L
  IC80, pseudovirus neutralization: 6.33 mg/L
[19]
  IC50, pseudovirus neutralization: 0.056 mg/L
  IC80, pseudovirus neutralization: 0.291 mg/L
[20]
  IC50, pseudovirus neutralization: > 50 mg/L
  IC80, pseudovirus neutralization: > 50 mg/L
[21]
  IC50, pseudovirus neutralization: > 50 mg/L
  IC80, pseudovirus neutralization: > 50 mg/L
[22]
  IC50, pseudovirus neutralization: 3.07 mg/L
  IC80, pseudovirus neutralization: 11.9 mg/L
[23]
  IC50, pseudovirus neutralization: 0.004 mg/L
  IC80, pseudovirus neutralization: 0.015 mg/L

B2: 10E8v4 S100cW-DS (antibody, V domains shown)
VH: B1 VH with S109W, Y111C
VL: B1 VL with S29C
[6]
  IC50, pseudovirus neutralization: 0.037 mg/L
  IC80, pseudovirus neutralization: 0.245 mg/L
[7]
  IC50, pseudovirus neutralization: 0.806 mg/L
  IC80, pseudovirus neutralization: 2.93 mg/L
[8]
  IC50, pseudovirus neutralization: 1.22 mg/L
  IC80, pseudovirus neutralization: 10.1 mg/L
[9]
  IC50, pseudovirus neutralization: 0.213 mg/L
  IC80, pseudovirus neutralization: 2.2 mg/L
[10]
  IC50, pseudovirus neutralization: 0.019 mg/L
  IC80, pseudovirus neutralization: 0.092 mg/L
[11]
  IC50, pseudovirus neutralization: > 50 mg/L
  IC80, pseudovirus neutralization: > 50 mg/L
[12]
  IC50, pseudovirus neutralization: > 50 mg/L
  IC80, pseudovirus neutralization: > 50 mg/L
[13]
  IC50, pseudovirus neutralization: 0.331 mg/L
  IC80, pseudovirus neutralization: 3.67 mg/L
[14]
  IC50, pseudovirus neutralization: 0.002 mg/L
  IC80, pseudovirus neutralization: 0.013 mg/L

B3: 10E8v4-DS (VH Y100eC and VL S30C substitutions) (antibody, V domains shown)
VH: B1 VH with Y111C
VL: B1 VL with S29C
[6]
  IC50, pseudovirus neutralization: 0.208 mg/L
  IC80, pseudovirus neutralization: 0.798 mg/L
[7]
  IC50, pseudovirus neutralization: 2.28 mg/L
  IC80, pseudovirus neutralization: 6.48 mg/L
[8]
  IC50, pseudovirus neutralization: 2.41 mg/L
  IC80, pseudovirus neutralization: 22.2 mg/L
[9]
  IC50, pseudovirus neutralization: 0.275 mg/L
  IC80, pseudovirus neutralization: 2.44 mg/L
[10]
  IC50, pseudovirus neutralization: 0.092 mg/L
  IC80, pseudovirus neutralization: 0.345 mg/L
[11]
  IC50, pseudovirus neutralization: > 50 mg/L
  IC80, pseudovirus neutralization: > 50 mg/L
[12]
  IC50, pseudovirus neutralization: > 50 mg/L
  IC80, pseudovirus neutralization: > 50 mg/L
[13]
  IC50, pseudovirus neutralization: 2.53 mg/L
  IC80, pseudovirus neutralization: 10.1 mg/L
[14]
  IC50, pseudovirus neutralization: 0.002 mg/L
  IC80, pseudovirus neutralization: 0.017 mg/L
MPER peptide
  fold tighter binding than 10E8v4: 2 fold
